Values quoted from earlier work as cited in article PMC7322545.

How the values were obtained:
CCL4 (Homo sapiens) = CCL4 (Homo sapiens) (UniProt P13236)
CCL18 (Homo sapiens) = CCL18 (Homo sapiens) (UniProt P55774)
CCL3 (Homo sapiens) = CCL3 (Homo sapiens) (UniProt P10147)

Measured: Kd

Chain of UniProt P55774 (P55774 24-89): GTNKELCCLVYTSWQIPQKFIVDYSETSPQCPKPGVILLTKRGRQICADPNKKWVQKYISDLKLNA
Chain of UniProt P10147 (P10147 24-92): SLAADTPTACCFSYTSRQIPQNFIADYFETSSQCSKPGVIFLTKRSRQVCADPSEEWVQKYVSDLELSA
Chain of UniProt P13236 (P13236 24-92): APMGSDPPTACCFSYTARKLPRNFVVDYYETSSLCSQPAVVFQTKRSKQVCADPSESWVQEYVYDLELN

EVA-1 (from UniProt P0C8E7)
< 5 nM: all assays above
